Experimental data reported in US20260115256A1 (HANGZHOU SCIWIND BIOSCIENCES, published 2026).
*1 amine or outer side, *2 acyl side, *3 side chain or, on linkers, in order; H or OH if unused. Bridges are numbered along the chain shown (N, C = ends). [ ]: non-standard residue; d: D form. The star is where a group is joined. C20 diacid = O=C(O)CCCCCCCCCCCCCCCCCCC(=O)*; C18 diacid = O=C(O)CCCCCCCCCCCCCCCCC(=O)*; γGlu = O=C(O)[C@H](CCC(=O)[*:2])N[*:1]; Hyp = O=C(O)[C@@H]1C[C@@H](O)CN1; AEEA = NCCOCCOCC(=O)O

T1: human amylin receptor (AMY3) on CHO-K1/Ga15/AMY3 cells (human, UniProt P30988 25-474; O60896 24-148)
T1 sequence (looked up) 1: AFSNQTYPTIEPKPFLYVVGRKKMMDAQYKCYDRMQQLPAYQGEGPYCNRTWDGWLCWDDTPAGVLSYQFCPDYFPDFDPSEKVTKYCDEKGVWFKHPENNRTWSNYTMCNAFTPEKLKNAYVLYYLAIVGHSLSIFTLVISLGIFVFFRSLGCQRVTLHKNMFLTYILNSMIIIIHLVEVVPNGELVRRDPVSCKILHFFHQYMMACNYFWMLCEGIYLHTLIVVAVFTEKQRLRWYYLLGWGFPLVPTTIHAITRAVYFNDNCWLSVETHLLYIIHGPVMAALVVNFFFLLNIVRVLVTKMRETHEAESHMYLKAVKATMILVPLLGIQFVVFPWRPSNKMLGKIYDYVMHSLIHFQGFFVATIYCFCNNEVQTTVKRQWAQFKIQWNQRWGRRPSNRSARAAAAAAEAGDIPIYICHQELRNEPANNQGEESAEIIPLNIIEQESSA
T1 sequence (looked up) 2: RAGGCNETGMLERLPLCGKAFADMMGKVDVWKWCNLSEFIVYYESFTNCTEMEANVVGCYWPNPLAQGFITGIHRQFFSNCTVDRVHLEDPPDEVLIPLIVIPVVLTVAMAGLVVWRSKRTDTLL

B1: PD122 (peptide)
peptide: {C20 diacid-γGlu-AEEA}-KCNTATCATQRLADFLRHSSNNLGPILPPTNVGSNT[Hyp]-NH2
modifications: disulfide 2-7 (inferred); not fully specified; printed as KCNTATCATQRLADFLRHSSNNLGPILPPTNVGSNT-trans-Hyp-NH2
B2: PD123 (peptide)
peptide: {C20 diacid-γGlu-AEEA-AEEA}-KCNTATCATQRLADFLRHSSNNLGPILPPTNVGSNT[Hyp]-NH2
modifications: disulfide 2-7 (inferred); not fully specified; printed as KCNTATCATQRLADFLRHSSNNLGPILPPTNVGSNT-trans-Hyp-NH2
B3: PD124 (peptide)
peptide: {C18 diacid-γGlu}-KCNTATCATQRLADFLRHSSNNLGPILPPTNVGSNT[Hyp]-NH2
modifications: disulfide 2-7 (inferred); not fully specified; printed as KCNTATCATQRLADFLRHSSNNLGPILPPTNVGSNT-trans-Hyp-NH2

Molecular target: T1, human amylin receptor (AMY3) on …
Assay: cell-based or functional assay

Binder	EC50, CRE-luciferase assay [nM]
B1	0.048
{C20 diacid-γGlu}-KCNTATCATQRLADFLRHSSNNLRPILPPTNVGSNT[Hyp]-NH2 (disulfide 2-7 (inferred)) [PD158]	0.022
B2	0.068
{C20 diacid-γGlu}-KCNTATCATQRLANFLVHSSNNFGPILPPTNVGSNTY-NH2 (ends and bridges not checked) [PD156]	0.029
{C18 diacid-γGlu-AEEA-AEEA}-KCNTATCATQRLADFLRHSSNNLGPILPPTNVGSNT[Hyp]-NH2 (disulfide 2-7 (inferred)) [PD126]	0.028
B3	0.008
{C20 diacid-γGlu}-KCNTATCATQRLADFLRHSSNNLHPILPPTNVGSNT[Hyp]-NH2 (disulfide 2-7 (inferred)) [PD159]	0.037
{C18 diacid-γGlu-AEEA}-KCNTATCATQRLADFLRHSSNNLGPILPPTNVGSNT[Hyp]-NH2 (disulfide 2-7 (inferred)) [PD125]	0.01
